Results as given in patent US20110110856A1 (SIGNALOMICS, published 2011).
Positions count from the first letter of the chain named. Numbers in names are those of the source.

T1: N-terminal domain of CEA (Homo sapiens (Human), UniProt P06731 35-144)
T1 construct: Target of the yeast two-hybrid screens; synthetic gene, codon-optimised for S. cerevisiae, cloned into a yeast TH vector; The fusion partner of the vector is not described; also called N-CEA; CEACAM5
T1 sequence: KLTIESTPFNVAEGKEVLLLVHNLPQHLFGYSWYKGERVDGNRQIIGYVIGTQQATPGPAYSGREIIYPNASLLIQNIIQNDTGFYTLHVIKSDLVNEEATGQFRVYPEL

B1: DraE T88M (N77K) I111H (ligand)
chain: GFTPSGTTGTTKLTVTEECQVRVGDLTVAKTRGQLTDAAPIGPVTVQALGCDARQVALKADTDNFEQGKFFLISDNKRDKLYVNIRPMDNSAWTTDNGVFYKNDVGSWGGHIGIYVDGQQTNTPPGNYTLTLTGGYWAK
B2: DraE T88M G118S I85L (ligand)
chain: B1 chain with I85L, H111I, G118S
B3: combined mutant T95E T123I (on DraE T88M N77K) (ligand)
chain: B1 chain with T95E, H111I, T123I
notes: also called T95E T1231
B4: DraE T88M Q34L N84S (ligand)
chain: B1 chain with Q34L, N84S, H111I
B5: combination mutant F100I T123I (on DraE T88M N77K) (ligand)
chain: B1 chain with F100I, H111I, T123I
B6: combined mutant F100S T11I D37G (on DraE T88M N77K) (ligand)
chain: B1 chain with T11I, D37G, F100S, H111I
notes: also called F1005 T11I D37G

target: T1, N-terminal domain of CEA; experiment: yeast two-hybrid screen against N-CEA

Binder	binding result
B1	binds

target: T1, N-terminal domain of CEA; experiment: yeast two-hybrid, FDG rescreening

Binder	binding result
B2	binds
B3	binds
B4	binds
B5	binds
B6	binds
